How the values were obtained:
[1] = target: T1, pure, pre-polymerized, taxol-stabilized microtubules of bovine tubulin (Cytoskeleton) (bovine, UniProt P81947 1-451; Q6B856 1-445, limits assumed); experiment: microtubule co-sedimentation, 1 nM purified 6×His truncation M with increasing microtubules, Coomassie gel, non-linear regression
T1 construct: Polymer of alpha/beta tubulin dimers, polymerized with GTP and stabilized with 10 µM taxol; also called MT; MTs
Description: For the direct microtubule binding assay, 1 nM of recombinantly expressed and purified 6×His tagged CEP290 truncation M was incubated at 30° C. for 30 minutes with increasing amounts of pure, prepolymerized microtubules. Reactions were centrifuged and subjected to SDS-PAGE as above, and tubulin and CEP290 truncation M were detected by Coomassie blue staining.

[2] = target: T1, pure, pre-polymerized, taxol-stabilized …; experiment: in vitro microtubule co-sedimentation of in vitro translated GFP fusions, western blot
Description: Crude TNT T7 reaction products were diluted 1:1 in BRB80 supplemented with 1 mM GTP and 10 μM taxol. The diluted products were then incubated at 30° C. for 30 minutes in either the presence or absence of pure, pre-polymerized microtubules. Reactions were then centrifuged through a 40% sucrose cushion at 48,000×g for 30 minutes, the supernatant was collected, and the pellet washed once with warm BRB80 and resuspended in 1×SDS PAGE sample buffer. Both fractions were subjected to SDS-PAGE and transferred to nitrocellulose. The presence of tubulin in the pellets was confirmed by Ponceau staining, and GFP-tagged CEP290 constructs were detected by immunoblotting.

T1 sequence (P81947 whole entry, chain 1 of 2, the tested form may be a part): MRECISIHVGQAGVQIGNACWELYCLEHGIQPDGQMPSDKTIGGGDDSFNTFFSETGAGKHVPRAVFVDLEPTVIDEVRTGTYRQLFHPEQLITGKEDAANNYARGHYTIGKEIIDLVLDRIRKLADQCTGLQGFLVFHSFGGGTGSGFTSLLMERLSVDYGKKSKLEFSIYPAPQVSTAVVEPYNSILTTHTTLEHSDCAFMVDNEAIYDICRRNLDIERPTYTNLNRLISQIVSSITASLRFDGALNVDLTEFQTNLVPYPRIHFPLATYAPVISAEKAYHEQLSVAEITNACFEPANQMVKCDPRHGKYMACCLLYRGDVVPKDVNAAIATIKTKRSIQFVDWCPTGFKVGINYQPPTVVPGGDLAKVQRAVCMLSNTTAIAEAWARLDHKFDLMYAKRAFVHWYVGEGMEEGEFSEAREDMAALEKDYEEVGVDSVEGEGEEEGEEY
T1 sequence (Q6B856 whole entry, chain 2 of 2, the tested form may be a part): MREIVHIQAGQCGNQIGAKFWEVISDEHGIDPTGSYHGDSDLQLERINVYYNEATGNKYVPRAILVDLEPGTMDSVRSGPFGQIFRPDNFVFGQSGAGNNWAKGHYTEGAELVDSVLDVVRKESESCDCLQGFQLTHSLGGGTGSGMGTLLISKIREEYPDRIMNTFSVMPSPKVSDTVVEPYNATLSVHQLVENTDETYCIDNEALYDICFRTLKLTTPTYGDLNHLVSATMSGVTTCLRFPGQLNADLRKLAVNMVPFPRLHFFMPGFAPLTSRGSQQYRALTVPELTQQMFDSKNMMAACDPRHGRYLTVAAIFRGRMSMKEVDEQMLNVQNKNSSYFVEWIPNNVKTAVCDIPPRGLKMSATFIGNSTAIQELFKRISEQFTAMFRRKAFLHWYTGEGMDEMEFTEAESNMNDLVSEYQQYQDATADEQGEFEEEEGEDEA

| Kd [1] [nM] | binding result [2] | Binder |
| --- | --- | --- |
| ~100 |  | 6×His tagged CEP290 truncation M (aa 1695-1966), recombinantly expressed and purified (other, Expressed in E. coli BL21(DE3)pLysS, purified on Ni-NTA; also called region M; CEP290 region M; not shown: N-terminal 6×His tag from pDest-527) DQSQKESQCLKSELQAQKEANSRAPTTTMRNLVERLKSQLALKEKQQKALSRALLELRAEMTAAAEERIISATSQKEAHLNVQQIVDRHTRELKTQVEDLNENLLKLKEALKTSKNRENSLTDNLNDLNNELQKKQKAYNKILREKEEIDQENDELKRQIKRLTSGLQGKPLTDNKQSLIEELQRKVKKLENQLEGKVEEVDLKPMKEKNAKEELIRWEEGKKWQAKIEGIRNKLKEKEGEVFTLTKQLNTLKDLFAKADKEKLTLQRKLKT |
|  | no binding | GFP-tagged "Deleted" CEP290 truncation (part of the microtubule binding region deleted in the rd16 mouse) (other, not shown: N-terminal GFP tag from pcDNA-DEST53 (Gateway)) DQSQKESQCLKSELQAQKEANSRAPTTTMRNLVERLKSQLALKEKQQKALSRALLELRAEMTAAAEERIISATSQKEAHLNVQQIVDRHTRELKTQVEDLNENLLKLKEALKTSKNRENSLTDNLNDLNNELQKKQKAYNKILREKEEIDQENDELKRQIKRLTSGLQGKPLTDNKQSLIEELQRKVKKLENQLEGKVEEVDLKPMKEK |

From US20160185832A1 (University of Pennsylvania, published 2016)
